Tests used:
NADP/thioredoxin system = NADP/thioredoxin system (Escherichia coli, UniProt P0AA25)
Method: (§1) Direct reduction of the proteins under study was determined by a modification of the method of Crawford et al. (Crawford, N. A. et al. (1989), Arch. Biochem. Biophys. 271:223-239). The reaction was carried out in 100 mM potassium phosphate buffer, pH 7.1, containing 10 mM EDTA and 16% glycerol in a final volume of 0.1 ml. As indicated, 0.7 μg (0.1 μM) NTR and 1 μg (0.8 μM) thioredoxin (both routinely from E. coli were added to 70 μl of the buffer solution containing 1 mM NADPH and 10 μg (2 to 17 μM) of target protein. When thioredoxin was reduced by dithiothreitol (DTT, 0.5 mM), NADPH and NTR were omitted. Assays with reduced glutathione were performed similarly, but at a final concentration of 1 mM. After incubation for 20 min, 100 nmoles of mBBr were added and the reaction was continued for another 15 min. To stop the reaction and derivatize excess mBBr, 10 μl of 10% SDS and 10 μl of 100 mM β-mercaptoethanol were added and the samples were then applied to the gels. In the case of reduction by glutaredoxin, the thioredoxin and NTR were replaced by 1 μg (0.8 μM) E. coli glutaredoxin, 1.4 μg (0.14 μM) glutathione reductase purified from spinach leaves (Florencio, F. J. et al. (1988), Arch. Biochem. Biophys. 266:496-507) and 1.5 mM NADPH was used.

[1] = system: wheat protease preparation; assay: Proteolysis by a plant protease preparation (SDS-PAGE, laser densitometer); assay type: biochemical
Method: The endosperm (10-15 g fresh weight) isolated from 5-day germinated wheat seeds by excising the roots and shoots was extracted for 30 minutes at 4° C. with 5 volumes of 200 mM sodium acetate, pH 4.6, containing 10 mM β-mercaptoenthanol. The homogenate was centrifuged for 20 minutes at 48,000 g, 4° C. The pellet was discarded and the supernatant fluid was fractionated with 30-70% ammonium sulfate. This fraction, which represented the protease preparation, was resuspended in a minimum volume of 20 mM sodium acetate, pH 4.6, containing 10 mM β-mercaptoenthanol, and dialyzed against this buffer overnight at 4° C.
Unless indicated, the reduction of the trypsin inhibitors (0.4 mg/ml) was carried out in 0.1 ml of 20 mM sodium phosphate buffer, pH 7.9 containing 10 mM EDTA at 30° C. for 2 hours. […] Proteolytic products were analyzed by electrophoresis with 12% or 16% SDS polyacrylamide slab gels (Laemmli, 1970). […]
To test whether the reduced forms of KTI and BBTI show decreased stability to proteases other than trypsin, both the reduced and oxidized forms of KTI and BBTI were incubated with a wheat protease preparation or with subtilisin and the proteolytic products were analyzed by SDS-PAGE. The extent of proteolysis was determined by measuring the abundance of intact protein on SDS gels by laser densitometer. […]

trypsin = target: T1, trypsin (Bos taurus, UniProt P00760); assay: Heat stability of trypsin inhibitors (trypsin activity, azocasein); assay type: biochemical
T1 construct: purchased Sigma Chemical Co. (St. Louis, Mo.) T8640
T1 sequence (P00760 24-246): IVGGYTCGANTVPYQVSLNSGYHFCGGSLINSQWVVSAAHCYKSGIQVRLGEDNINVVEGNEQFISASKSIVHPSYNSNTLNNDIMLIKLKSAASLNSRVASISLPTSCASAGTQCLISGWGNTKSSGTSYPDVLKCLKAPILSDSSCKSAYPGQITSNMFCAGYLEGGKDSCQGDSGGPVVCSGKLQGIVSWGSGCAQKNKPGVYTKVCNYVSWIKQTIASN
Method: Unless indicated, the reduction of the trypsin inhibitors (0.4 mg/ml) was carried out in 0.1 ml of 20 mM sodium phosphate buffer, pH 7.9 containing 10 mM EDTA at 30° C. for 2 hours. The concentrations of thioredoxin, NTR, and NADPH were 0.024 mg/ml, 0.02 mg/ml, and 0.25 mM, respectively. […] Following reduction, aliquots of the inhibitor mixture were withdrawn either for determination of trypsin inhibitory activity or proteolytic susceptibility. In the subtilisin tests, the inhibitor mixture (50 μl) was directly mixed with subtilisin and incubated at room temperature for 1 hour. With the wheat protease preparation, the pH of the inhibitor mixture (50 μL) was first adjusted to 4.7 by mixing with 35 μl of 200 mM sodium acetate, pH 4.6; 10 μl of the wheat protease preparation was then added and incubation was continued for 2 hours at 37° C. To stop digestion with subtilisin, 2 μl of 100 mM phenylmethylsulfonyl fluoride (PMSF) and 10 μl of 10% SDS were added to the digestion mixture. With the plant protease preparation, digestion was stopped by adding an equal volume of SDS sample buffer [0.125 M Tris-HCl, pH 6.8, 4% (w/v) SDS, 20% (v/v) glycerol, 10% (v/v) β-mercaptoethanol, and 0.02% (w/v) bromophenol blue]. Proteolytic products were analyzed by electrophoresis with 12% or 16% SDS polyacrylamide slab gels (Laemmli, 1970). The dried slab gels were scanned with a laser densitometer (Pharmacia-LKB UltraScan XL) and the peak area of the KTI or BBTI protein band was obtained by integration with a Pharmacia GelScan XL software program.
Thioredoxin and NTR were assayed as previously described by Florencio et al. (1988). Trypsin activity was measured in 50 mM Tris-HCl, pH 7.9, by following the increase in absorbance at 253 nm with N-benzoyl-L-arginine ethyl ester as substrate (Mundy et al., 1984) or by the release of azo dye into the trichloroacetic acid (TCA)-soluble fraction from azocasein substrate (see below). For trypsin inhibition assays, trypsin (5 to 10 μg) was preincubated with appropriate amounts of KTI or BBTI for 5 minutes at room temperature in 50 mM Tris-HCl, pH 7.9 and proteolytic activity was then determined. While the two substrates yielded similar data, results are presented with only one substrate.
The question arises as to whether reduction by thioredoxin yields similar results. The results as shown in TABLE XII provide a positive answer to this question. When heated at 80° C. for 15 minutes, the thioredoxin-reduced form of KTI completely lost its ability to inhibit trypsin, whereas its oxidized counterpart retained about half of the original activity (Table XII). […] Nonetheless, as with KTI, the reduced form of BBTI was fully inactivated by heat (Table XII). […]

glutaredoxin = target: T2, glutaredoxin (Escherichia coli, UniProt P68688); assay: Reduction by glutaredoxin relative to thioredoxin (mBBr/SDS-PAGE, densitometric scanning); assay type: biochemical; conditions: glutathione reductase, NADPH
T2 construct: gift of Professor A. Holmgren
T2 sequence (P68688 1-85): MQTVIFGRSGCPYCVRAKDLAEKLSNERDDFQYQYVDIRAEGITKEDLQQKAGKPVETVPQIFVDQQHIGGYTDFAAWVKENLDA
Method: as §1, with “In the case of reduction by glutaredoxin, the thioredoxin and NTR were replaced by 1 μg (0.8 μM) E. coli glutaredoxin, 1.4 μg (0.14 μM) glutathione reductase purified from spinach leaves (Florencio, F. J. et al. (1988), Arch. Biochem. Biophys. 266:496-507) and 1.5 mM NADPH was used.” left out
This ability was tested, using glutaredoxin from E. coli and the seed proteins currently under study. Reduction activity was monitored by the mBBr/SDS polyacrylamide gel electrophoresis procedure coupled with densitometric scanning.

B1: Soybean Kunitz: Kunitz soybean trypsin inhibitor (protein, UniProt P01070 25-205, looked up)
Trypsin inhibitor A: DFVLDNEGNPLENGGTYYILSDITAFGGIRAAPTGNERCPLTVVQSRNELDKGIGTIISSPYRIRFIAEGHPLSLKFDSFAVIMLCVGIPTEWSVVEDLPEGPAVKIGENKDAMDGWFRLERVSDDEFNNYKLVFCPQQAEDDKCGDIGISIDHDDGTRRLVVSKNKPLVVQFQKLDKESL
With B1 the “% Reduction After 20 min” value (NADP/thioredoxin system) was 14%, the “% Reduction After 120 min” value (NADP/thioredoxin system) was 22% and the “degraded by wheat protease preparation” value [1] was “about 80%”. The “Relative Trypsin Activity, inhibitor heated 15 min at 80° C., Oxidized” value (trypsin) was 52.3, the “Relative Trypsin Activity, inhibitor heated 15 min at 80° C., Reduced” value (trypsin) was 98.7 and the “Relative Trypsin Activity, inhibitor unheated, Reduced” value (trypsin) was 76.4. For the same molecule, the “Relative Trypsin Activity, inhibitor unheated, Oxidized” value (trypsin; no inhibitor = 100, azocasein) was 26.6 and the “percentage reduction relative to E. coli thioredoxin” value (glutaredoxin) was “ineffective”.
